Laboratory results as given in US20230242646A1 (JJP BIOLOGICS SP Z O O, published 2023).

T1: chimeric human/cynomolgus monkey CD89-II on HEK293F cells (human/cynomolgus chimera, UniProt P24071 22-287)
T1 construct: also called dIle47 - Ile71 human EC1-CD89; II (47-71)
T1 chain: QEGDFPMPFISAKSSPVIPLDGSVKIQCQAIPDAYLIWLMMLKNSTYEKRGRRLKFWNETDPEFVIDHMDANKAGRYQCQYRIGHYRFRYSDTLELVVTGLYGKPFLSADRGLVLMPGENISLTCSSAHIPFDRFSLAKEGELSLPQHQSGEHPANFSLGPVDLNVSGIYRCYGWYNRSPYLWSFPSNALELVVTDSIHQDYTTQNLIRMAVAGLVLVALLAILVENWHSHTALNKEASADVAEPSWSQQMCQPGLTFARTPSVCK

T2: chimeric human/cynomolgus monkey CD89-hotspots on HEK293F cells (human/cynomolgus chimera, UniProt P24071 22-287)
T2 construct: also called dThr58, Gln59; dArg73, Arg74, Lys76
T2 chain: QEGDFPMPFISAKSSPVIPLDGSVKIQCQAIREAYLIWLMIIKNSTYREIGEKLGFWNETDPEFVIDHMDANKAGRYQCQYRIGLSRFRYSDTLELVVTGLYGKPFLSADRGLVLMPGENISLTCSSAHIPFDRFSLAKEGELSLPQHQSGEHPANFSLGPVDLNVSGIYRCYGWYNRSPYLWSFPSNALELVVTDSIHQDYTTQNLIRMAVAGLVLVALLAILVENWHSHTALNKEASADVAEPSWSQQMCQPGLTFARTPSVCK

T3: chimeric human/cynomolgus monkey CD89-III on HEK293F cells (human/cynomolgus chimera, UniProt P24071 22-287)
T3 construct: also called dGly72 - Gly96 human EC1-CD89; III (72-96)
T3 chain: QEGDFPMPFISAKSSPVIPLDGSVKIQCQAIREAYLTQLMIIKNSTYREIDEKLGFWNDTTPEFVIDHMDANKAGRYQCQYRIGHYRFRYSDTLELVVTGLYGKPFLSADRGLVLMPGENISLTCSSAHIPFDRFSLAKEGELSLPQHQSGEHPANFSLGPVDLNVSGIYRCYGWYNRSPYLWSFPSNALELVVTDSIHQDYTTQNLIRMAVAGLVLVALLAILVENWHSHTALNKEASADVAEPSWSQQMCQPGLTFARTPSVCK

T4: chimeric human/cynomolgus monkey CD89-I on HEK293F cells (human/cynomolgus chimera, UniProt P24071 22-287)
T4 construct: also called dGln22 - Lys46 human EC1-CD89; I (22-46)
T4 chain: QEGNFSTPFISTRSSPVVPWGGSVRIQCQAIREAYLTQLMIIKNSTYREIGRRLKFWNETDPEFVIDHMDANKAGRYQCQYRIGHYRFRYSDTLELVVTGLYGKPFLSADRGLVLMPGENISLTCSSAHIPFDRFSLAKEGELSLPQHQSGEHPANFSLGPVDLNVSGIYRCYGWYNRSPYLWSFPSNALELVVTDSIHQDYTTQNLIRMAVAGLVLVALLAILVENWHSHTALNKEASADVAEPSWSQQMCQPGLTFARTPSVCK

T5: chimeric human/cynomolgus monkey CD89-IV on HEK293F cells (human/cynomolgus chimera, UniProt P24071 22-287)
T5 construct: also called dArg97 - Gly121 human EC1-CD89
T5 chain: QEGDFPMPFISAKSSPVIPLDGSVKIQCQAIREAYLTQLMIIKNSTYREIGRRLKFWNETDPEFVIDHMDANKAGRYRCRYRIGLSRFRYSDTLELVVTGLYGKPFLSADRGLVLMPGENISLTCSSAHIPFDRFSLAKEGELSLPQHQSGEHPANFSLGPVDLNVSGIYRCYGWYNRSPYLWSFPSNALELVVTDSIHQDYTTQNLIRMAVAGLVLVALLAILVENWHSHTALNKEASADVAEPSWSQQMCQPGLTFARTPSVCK

T6: chimeric bovine EC1-Fcgamma2R/human EC2-CD89 on HEK293F cells (bovine/human chimera)
T6 chain: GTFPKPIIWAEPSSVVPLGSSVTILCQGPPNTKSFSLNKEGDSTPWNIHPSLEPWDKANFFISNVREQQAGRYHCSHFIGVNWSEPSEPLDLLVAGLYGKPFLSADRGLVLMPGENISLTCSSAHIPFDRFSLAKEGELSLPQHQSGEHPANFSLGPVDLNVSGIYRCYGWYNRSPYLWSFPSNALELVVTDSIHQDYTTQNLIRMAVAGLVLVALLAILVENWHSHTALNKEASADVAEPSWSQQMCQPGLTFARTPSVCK

T7: membrane full-length cynomolgus monkey CD89 on HEK293F cells (cynomolgus monkey)
T7 construct: also called cynoCD89; cynomolgus EC1-CD89
T7 chain: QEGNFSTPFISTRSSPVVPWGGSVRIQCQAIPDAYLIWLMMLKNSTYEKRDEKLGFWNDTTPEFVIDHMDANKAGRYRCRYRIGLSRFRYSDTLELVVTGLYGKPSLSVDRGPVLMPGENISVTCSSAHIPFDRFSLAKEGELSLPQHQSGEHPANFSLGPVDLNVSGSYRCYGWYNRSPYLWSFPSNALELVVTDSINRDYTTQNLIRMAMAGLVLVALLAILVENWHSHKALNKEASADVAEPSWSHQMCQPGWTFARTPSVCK


Columns and labels:
[1] = biological target: membrane human CD89 on ex vivo primary human neutrophilic granulocytes or monocytic U937 cells (human, UniProt P24071 22-287); assay: cell-based or functional assay
[2] = biological target: T8, membrane-bound full-length human CD89 on HEK293F cells (human, UniProt P24071 22-287); assay: FACS HEK293F-huCD89, 10 ug/mL; competitor PE-MIP8a
T8 construct: 2 or transient transfectants; also called membrane human CD89; human FcaRI
Procedure: (§1) Then, 10 µL/tube (i.e., 0.1 × 10⁶ cells) of these cells were incubated with or without 100 µL purified mouse anti-human CD89 antibody at 10 µg/mL (in PBS/BSA/NaN₃) for 30 minutes at 4° C. […] After extensive washing in PBS/BSA/NaN₃, cells were fixed in 2% formaldehyde in PBS/BSA/NaN₃ for 30 minutes at 4° C.

[3] = biological target: T8, membrane-bound full-length human CD89 …; assay: FACS HEK293F-huCD89, 10 ug/mL; competitor PE-A3
Procedure: as §1

[4] = biological target: T8, membrane-bound full-length human CD89 …; assay: FACS, antibody before secretory IgA on HEK293F-huCD89; IgA detected
Procedure: Then, 10 µL/tube (i.e., 0.1 x 10⁶ cells) of these cells were incubated with or without 50 µL titrated (in PBS/BSA/NaN₃) purified mouse anti-human CD89 antibody/tube for 30 minutes at 4° C. […] After extensive washing in PBS/BSA/NaN₃, 1:200 diluted PE-conjugated streptavidin (Jackson ImmunoResearch) was added, and incubated for 30 minutes at 4° C. After extensive washing in PBS/BSA/NaN₃, cells were fixed in 4% formaldehyde in PBS/BSA/NaN₃ for 30 minutes at 4° C.

[5] = biological target: T1, chimeric human/cynomolgus monkey …; assay: FACS, transiently transfected HEK293F
[6] = biological target: T2, chimeric human/cynomolgus monkey …; assay: FACS, 10 µg/mL, transiently transfected HEK293F
Procedure: (§2) To this end, transient transfected HEK293F cells were put at 10 × 10⁶ cells/mL in ice-chilled phosphate-buffered saline containing 0.1% BSA (Sigma)/0.05% NaN₃ (PBS/BSA/NaN₃) supplemented with 50 µg/mL human IgGs (blocking FcY receptors; Sigma) for 10 minutes at 4° C. Then, 10 µL/tube (i.e., 0.1 × 10⁶ cells) of these cells were incubated with or without 100 µL purified mouse anti-human CD89 antibody at 10 µg/mL (in PBS/BSA/NaN₃) for 30 minutes at 4° C. […] After extensive washing in PBS/BSA/NaN₃, cells were subsequently incubated with 1:200 diluted PE-conjugated goat anti-mouse IgG Fcy-specific antibodies (Jackson ImmunoResearch) for 30 minutes at 4° C. After extensive washing in PBS/BSA/NaN₃, cells were fixed in 2% formaldehyde in PBS/BSA/NaN₃ for 30 minutes at 4° C.

[7] = biological target: T3, chimeric human/cynomolgus monkey …; assay: FACS, 10 µg/mL, transiently transfected HEK293F
Procedure: as §2

[8] = biological target: T4, chimeric human/cynomolgus monkey CD89-I …; assay: FACS, 10 µg/mL, transiently transfected HEK293F
Procedure: as §2

[9] = biological target: T5, chimeric human/cynomolgus monkey …; assay: FACS, 10 µg/mL, transiently transfected HEK293F
Procedure: as §2

[10] = biological target: T8, membrane-bound full-length human CD89 …; assay: FACS on HEK293F-huCD89
Procedure: Then, 10 µL/tube (i.e., 0.1 x 10⁶ cells) of these cells were incubated with 100 µL titrated (in PBS/BSA/NaN₃) purified mouse anti-human CD89 antibody/tube for 30 minutes at 4° C. […] After extensive washing in PBS/BSA/NaN₃, cells were subsequently incubated with 1:200 diluted PE-conjugated goat anti-mouse IgG Fcy-specific antibodies (Jackson ImmunoResearch) for 30 minutes at 4° C. After extensive washing in PBS/BSA/NaN₃, cells were fixed in 2% formaldehyde in PBS/BSA/NaN₃ for 30 minutes at 4° C.

[11] = biological target: T6, chimeric bovine EC1-Fcgamma2R/human …; assay: FACS, transiently transfected HEK293F
Procedure: To this end, transient transfected HEK293F cells were put at 10 × 10⁶ cells/mL in ice-chilled phosphate-buffered saline containing 0.1% BSA (Sigma)/0.05% NaN₃ (PBS/BSA/NaN₃) supplemented with 50 µg/mL human IgGs (blocking Fcy receptors; Sigma) for 10 minutes at 4° C. Then, 10 µL/tube (i.e., 0.1 × 10⁶ cells) of these cells were incubated with or without 100 µL purified mouse anti-human CD89 antibody at 10 µg/mL (in PBS/BSA/NaN₃) for 30 minutes at 4° C. […] After extensive washing in PBS/BSA/NaN₃, cells were subsequently incubated with 1:200 diluted PE-conjugated goat anti-mouse IgG Fcy-specific antibodies (Jackson ImmunoResearch) for 30 minutes at 4° C. After extensive washing in PBS/BSA/NaN₃, cells were fixed in 2% formaldehyde in PBS/BSA/NaN₃ for 30 minutes at 4° C.

[12] = biological target: T9, recombinant C-terminal polyhistidine-tagged human (extracellular) CD89 (Sino Biological) (human, UniProt P24071 22-227); assay: ELISA, coated rhuCD89
T9 construct: extracellular domain; bought protein; also called rhuCD89; soluble monomeric rhuCD89

[13] = biological target: T8, membrane-bound full-length human CD89 …; assay: FACS HEK293F-huCD89, 10 ug/mL; competitor PE-A59
Procedure: as §1

[14] = biological target: T9, recombinant C-terminal …; assay: ELISA, antibody before serum IgA on coated rhuCD89; IgA detected
Procedure: After extensive washing with PBS/0.05% Tween 20, plates were blocked with PBS/0.05% Tween 20/1% BSA (Roche) for 1 hour at RT. Subsequently, plates were incubated with 25 µL titrated (in block buffer) purified mouse anti-human CD89 antibody/well for 30 minutes at RT. […] After extensive washing in PBS/0.05% Tween 20, 1:10,000 diluted HRP-conjugated streptavidin (Jackson ImmunoResearch) was added, and incubated for 1 hour at RT, followed by a ready-to-use solution of TMB substrate (Invitrogen) for colorimetric detection.

[15] = biological target: T8, membrane-bound full-length human CD89 …; assay: FACS HEK293F-huCD89
Procedure: After extensive washing in PBS/BSA/NaN₃, cells were subsequently incubated with 1:200 diluted PE-conjugated goat anti-human IgG Fcy-specific antibodies (Jackson ImmunoResearch) for 30 minutes at 4° C. After extensive washing in PBS/BSA/NaN₃, cells were fixed in 2% formaldehyde in PBS/BSA/NaN₃ for 30 minutes at 4° C.

[16] = biological target: T8, membrane-bound full-length human CD89 …; assay: FACS, antibody before serum IgA on HEK293F-huCD89; IgA detected
Procedure: Then, 10 µL/tube (i.e., 0.1 x 10⁶ cells) of these cells were incubated with 50 µL titrated (in PBS/BSA/NaN₃) purified mouse anti-human CD89 antibody/tube for 30 minutes at 4° C. […] After extensive washing in PBS/BSA/NaN₃, 1:200 diluted PE-conjugated streptavidin (Jackson ImmunoResearch) was added, and incubated for 30 minutes at 4° C. After extensive washing in PBS/BSA/NaN₃, cells were fixed in 2% formaldehyde in PBS/BSA/NaN₃ for 30 minutes at 4° C.

[17] = biological target: T8, membrane-bound full-length human CD89 …; assay: FACS, unlabelled antibody before MIP8a-PE on HEK293F-huCD89
[18] = biological target: T7, membrane full-length cynomolgus monkey …; assay: FACS, transiently transfected HEK293F
Procedure: To this end, transient transfected HEK293F cells were put at 10 x 10⁶ cells/mL in ice-chilled phosphate-buffered saline containing 0.1% BSA (Sigma)/0.05% NaN₃ (PBS/BSA/NaN₃) supplemented with 50 µg/mL human IgGs (blocking FcY receptors; Sigma) for 10 minutes at 4° C. Then, 10 µL/tube (i.e., 0.1 × 10⁶ cells) of these cells were incubated with or without 100 µL purified mouse anti-human CD89 antibody at 10 µg/mL (in PBS/BSA/NaN₃) for 30 minutes at 4° C. […] After extensive washing in PBS/BSA/NaN₃, cells were subsequently incubated with 1:200 diluted PE-conjugated goat anti-mouse IgG Fcy-specific antibodies (Jackson ImmunoResearch) for 30 minutes at 4° C. After extensive washing in PBS/BSA/NaN₃, cells were fixed in 2% formaldehyde in PBS/BSA/NaN₃ for 30 minutes at 4° C.

[19] = biological target: T9, recombinant C-terminal …; assay: ELISA, coated rhuCD89, supernatant
Procedure: After extensive washing with PBS/0.05% Tween 20, plates were blocked with PBS/0.05% Tween 20/1% BSA (Roche) for 1 hour at RT. […] After extensive washing in PBS/0.05% Tween 20, binding of antibodies on rhuCD89 was determined with 1:5,000 diluted horseradish peroxidase (HRP)-conjugated goat anti-human IgG Fcγ-specific antibodies (Jackson ImmunoResearch) for 1 hour at RT, followed by a ready-to-use solution of TMB substrate (Invitrogen) for colorimetric detection. After adding 1 M HCL, binding (optical density) of antibodies on rhuCD89 was measured at wavelength of 450 nm (reference wavelength of 655 nm) using a microplate reader (Synergy HTX; BioTek).

[20] = biological target: T8, membrane-bound full-length human CD89 …; assay: FACS HEK293F-huCD89, supernatant
Procedure: After extensive washing in PBS/BSA/NaN₃, cells were subsequently incubated with 1:200 diluted PE-conjugated goat anti-human IgG Fcγ-specific antibodies (Jackson ImmunoResearch) for 30 minutes at 4° C. After extensive washing in PBS/BSA/NaN₃, cells were fixed in 4% formaldehyde in PBS/BSA/NaN₃ for 30 minutes at 4° C.

Binder | IC50 (read off the bars), binding of granulocytes to plate-bound serum IgA [Donor 2] [1] [µg/mL] | % blocking of PE-MIP8a binding [2] [%] | % blocking of PE-A3 binding [3] [%] | IC50 (read off the curve) [4] [µg/mL] | binding result [5] | binding result [6] | binding result [7] | binding result [8] | binding result [9] | EC50 (read off the curve) [10] [µg/mL] | binding result [11] | EC50 [12] [µg/mL] | % blocking of PE-A59 binding [13] [%] | IC50 (read off the curve) [14] [µg/mL] | EC50 [15] [µg/mL] | IC50 (read off the curve) [16] [µg/mL] | IC50 (read off the curve) [17] [µg/mL] | binding result [18] | EC50 [19] [µg/mL] | EC50 [20] [µg/mL]
CD89/IgA blocking mouse anti-human CD89-specific antibody 30C7 (antibody, V domains shown) VH: QVQLQQSGPELVRPGVSVKISCKGSGYTFTDYVMHWVKQSHAKSLEWIGVISTYSGNTNYNQKFKGKATMTVDKSSSTAYMELARLTSEDSAIYYCARESDGYYFDYWGQGTTLTVSS VL: DIVMSQSPSSLAVSAGEKVTMSCKSSQSLLNSRTRKNYLAWYQQKPGQSPKLLIYWASTRESGVPDRFTGSGSGTDFTLTISSVQAEDLAVYYCKQSYNLMYTFGGGTKLEIK | ~0.6 | > 90 | < 25 | ~1 | no binding (tested: 10 µg/mL) | binds | binds | binds | binds | ~0.4 | no binding (tested: 10 µg/mL) | 0.029 | < 25 | ~0.1 | 0.484 | ~0.6 | ~1 | – | – | –
CD89/IgA blocking mouse anti-human CD89-specific antibody 20B4 (antibody, V domains shown) VH: QVQLKESGPGLVAPSQSLSITCTVSGFSLTSYGVHWVRQPPGKGLEWLGIIWAGGSTSYNSALMSRLSISKDNSKSQVFLKMNSLQTDDTAMYYCARDHYDLFAYWGQGTLVTVSA VL: DILMTQSPSSMSVSLGDTVSITCHASQDISRNIGWLQQKPGKSFKGLIYHGTNLEDGVPSRFSGSGSGADYSLTISSLESEDFADYYCVQYAQFPRTFGGGTKLEIK | – | < 25 | – | ~0.4 | no binding (tested: 10 µg/mL) | binds | binds | binds | binds | ~0.2 | no binding (tested: 10 µg/mL) | 0.013 | – | – | 0.26 | ~0.3 | – | no binding (tested: 10 µg/mL) | – | –
humanized IgG4/kappa anti-human CD89 monoclonal antibody 10E7 version VH3VL3 (antibody, tested as supernatant; signal peptide end derived as for m17) heavy: not shown light: DIQMTQSPSSLSASVGDRVTITCRASQDIINYLNWYQQKPGKAVKLLIYYTSRLHSGVPSRFSGSGSGTDYTLTISSLQPEDFATYYCQQGKTLPYTFGQGTKLEIKRTVAAPSVFIFPPSDEQLKSGTASVVCLLNNFYPREAKVQWKVDNALQSGNSQESVTEQDSKDSTYSLSSTLTLSKADYEKHKVYACEVTHQGLSSPVTKSFNRGEC | – | – | – | – | – | – | – | – | – | – | – | – | – | – | – | – | – | – | ~0.02 | ~1
humanized IgG4/kappa anti-human CD89 monoclonal antibody 10E7 version VH3VL4 (antibody, tested as supernatant; signal peptide end derived as for m17) heavy: not shown light: DIQMTQSPSSLSASVGDRVTITCRASQDIINYLNWYQQKPGKTVKLLIYYTSRLHSGVPSRFSGSGSGTDYTLTISSLQPEDFATYFCQQGKTLPYTFGQGTKLEIKRTVAAPSVFIFPPSDEQLKSGTASVVCLLNNFYPREAKVQWKVDNALQSGNSQESVTEQDSKDSTYSLSSTLTLSKADYEKHKVYACEVTHQGLSSPVTKSFNRGEC | – | – | – | – | – | – | – | – | – | – | – | – | – | – | – | – | – | – | ~0.02 | ~1
